Measurements from the supplement of paper PMC9732359.
± gives the uncertainty stated by the source.

Assay: protein stability index of a GFP-peptide fusion (yeast GPS) (PSI 1-4); higher = more stable; sorted into four equal gates, so the index is relative within each strain
Summary of the method: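 Tiled 17-residue peptides from yeast proteins were fused downstream of GFP on a plasmid that also expresses Cherry, and the pooled library was carried in yeast. Mid-log cultures grown in leucine-free medium were sorted into four equal gates by GFP/Cherry fluorescence ratio. Plasmids from each gate were PCR-amplified and Illumina-sequenced, and reads were assigned to strains by barcodes. Each peptide's protein stability index is the sum, over gates, of the gate's read frequency multiplied by its gate number.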

Sequence	protein stability index (doa10∆)	protein stability index (pdr5∆)	protein stability index (ubr1∆)	protein stability index (san1∆)
ARNLIEDEDDGESEKSS [RPC53]	3.06 ± 0.12	3.68 ± 0.18	3.29 ± 0.11	–
ARRRQPTDQNNQSNLNG [SNF2]	2.88 ± 0.12	3.25 ± 0.19	3.24 ± 0.16	3.11 ± 0.07
ARVTGGMKVKADRDESS [RPS14B]	2.5 ± 0.072	2.92 ± 0.067	3.03 ± 0.043	3.12 ± 0.05
ARYNWICDPVHKHREAR [RPL15A]	3.51 ± 0.12	2.81 ± 0.13	3.22 ± 0.096	2.98 ± 0.12
ASAKSVRSGVSKSAPSK [YAR002W/NUP60]	2.96 ± 0.078	2.92 ± 0.1	2.99 ± 0.056	2.96 ± 0.064
ASITGTGSNDRCIGDSD [YMR129W/POM152]	3.11 ± 0.083	2.78 ± 0.12	2.88 ± 0.1	2.35 ± 0.11
ASKGRTKIDMPIKNRKN [BRN1]	3.21 ± 0.11	3.13 ± 0.088	3.17 ± 0.1	2.91 ± 0.12
ASKSKKKFNMGKEFEAR [RPC53]	3.33 ± 0.085	3.14 ± 0.12	3.4 ± 0.081	3.27 ± 0.073
ASKVLLKIFLYLESLFA [IRR1]	–	–	–	2.02 ± 0.24
ASLALAHVFVGTCNGDI [RPN1]	2.48 ± 0.059	2.61 ± 0.054	2.58 ± 0.074	2.43 ± 0.077
ASLKIKNATDLQQAKLR [SMC3]	3.11 ± 0.12	2.96 ± 0.11	3.09 ± 0.095	2.93 ± 0.13
ASLKKMEETEQKKIQIN [SMC3]	2.33 ± 0.22	1.82 ± 0.076	2.23 ± 0.11	3.1 ± 0.13
ASNEVIAKSRYWYFLQK [RPL20A]	2.19 ± 0.054	2.66 ± 0.066	2.72 ± 0.058	2.58 ± 0.063
ASRSQLEKGEIELSDGS [YJL039C/NUP192]	3.06 ± 0.081	3.02 ± 0.072	3 ± 0.042	2.8 ± 0.07
ASVEIVFHDPDHSMILP [SMC3]	2.26 ± 0.11	2.54 ± 0.12	2.65 ± 0.079	2.98 ± 0.15
ASYLTPLLEAKKLVWPL [SSN2]	2.13 ± 0.14	2.04 ± 0.066	2.71 ± 0.084	2.86 ± 0.15
ATAEKLPNIYPSTRCKL [RPT2]	2.14 ± 0.096	1.66 ± 0.091	2 ± 0.1	2.04 ± 0.1
ATEKKSSSPLAMSETLS [PRE8]	2.33 ± 0.076	2.77 ± 0.068	2.39 ± 0.055	2.44 ± 0.1
ATEVTPQEPKHIQEEEE [RPC19]	3.24 ± 0.081	3.23 ± 0.09	3.37 ± 0.079	3.14 ± 0.056
ATFTSIELTSYESIATY [RPN7]	1.75 ± 0.038	1.9 ± 0.04	1.77 ± 0.025	1.77 ± 0.046
ATGKKSRGINKGHKFNN [RPL15A]	2.5 ± 0.24	2.69 ± 0.13	2.17 ± 0.13	2.34 ± 0.12
ATIRETYEIICDQTKSV [RRP43]	2.87 ± 0.06	3 ± 0.065	2.98 ± 0.045	2.8 ± 0.063
ATKEGVVLGVEKRATSP [PUP2]	2.72 ± 0.14	3.14 ± 0.087	3.19 ± 0.053	3.15 ± 0.083
ATLQSNEPTQKDEEETE [DSN1]	3.21 ± 0.16	3.18 ± 0.12	2.79 ± 0.1	3.17 ± 0.1
ATPIPEEVQQAQTEIKL [RPS5]	2.82 ± 0.11	2.89 ± 0.1	3.05 ± 0.11	2.97 ± 0.096
ATSTNPAKSASARGSYL [RPL17A]	2.25 ± 0.033	2.59 ± 0.038	2.66 ± 0.029	2.53 ± 0.038
AVAGLTADAEILINTAR [PRE9]	2.98 ± 0.11	3.02 ± 0.088	3.09 ± 0.078	3.07 ± 0.1

Sequence	protein stability index (doa10∆)	protein stability index (pdr5∆)	protein stability index (ubr1∆)	protein stability index (san1∆)
AVEKTLALGCHFQDQKN [POP7]	2.42 ± 0.12	3.12 ± 0.11	2.78 ± 0.096	2.87 ± 0.078
AVFIVPKILIREHERVI [SWP82]	1.7 ± 0.085	2.06 ± 0.097	2.1 ± 0.19	1.69 ± 0.15
AVGNLGNAIEVTEDGSI [RPL22B]	1.16 ± 0.13	1.45 ± 0.098	1.27 ± 0.05	1.24 ± 0.19
AVSAASVVSMSNDVLKP [SIR2]	2.5 ± 0.048	3.11 ± 0.064	2.75 ± 0.04	2.82 ± 0.063
AVSIETALEHKVVNGNS [FAS2]	2.14 ± 0.18	1.37 ± 0.1	1.4 ± 0.051	1.34 ± 0.12
AVYETLISRMIFIATQL [BRR2]	1.96 ± 0.072	1.55 ± 0.058	1.62 ± 0.041	1.29 ± 0.096
AYFLIIVPVISTIENVL [COB]	1.52 ± 0.057	1.75 ± 0.045	2.12 ± 0.07	1.92 ± 0.059
AYNKKSTISAREIQTAV [HTB1]	2.5 ± 0.1	3.03 ± 0.089	2.92 ± 0.13	2.98 ± 0.12
AYVAIEQVKDDGTSTEK [RPN8]	2.48 ± 0.16	1.73 ± 0.13	2.64 ± 0.085	3.23 ± 0.15
CAERVKIQQQQPGYADL [QCR6]	3.29 ± 0.13	2.99 ± 0.19	3.09 ± 0.27	–
CDDESGDNEYITLRTSG [MCD1]	3.29 ± 0.16	3.29 ± 0.099	3.47 ± 0.061	3.04 ± 0.072
CDEHMGLSLAGLAPDAR [PRE5]	2.79 ± 0.18	3.08 ± 0.15	2.76 ± 0.093	2.56 ± 0.12
CEIHPSMILGVAASIIP [RPB2]	1.35 ± 0.11	1.42 ± 0.1	1.35 ± 0.16	1.14 ± 0.15
CESCSTILCTPTGGKAK [RPS27A]	1.93 ± 0.046	2.32 ± 0.046	2.18 ± 0.037	2.1 ± 0.055
CGDSIICNTLNIAKDLK [SMC1]	1.78 ± 0.079	1.66 ± 0.067	2.12 ± 0.075	1.42 ± 0.12
CGLMTVIAKLNHNQFEC [RPB2]	2.33 ± 0.09	2.35 ± 0.078	1.7 ± 0.15	1.5 ± 0.12
CIFGDAFDVDRAKSCGV [RPL1A]	3.01 ± 0.073	2.75 ± 0.084	2.59 ± 0.081	2.57 ± 0.11
CIIFMDEVDAIGGRRFS [RPT4]	2.38 ± 0.089	2.13 ± 0.075	2.43 ± 0.099	2.88 ± 0.1
CKKKEMSQYQSTMKENK [YIL149C/MLP2]	2.49 ± 0.088	2.76 ± 0.073	2.55 ± 0.071	1.42 ± 0.23
CLGIKDEEMLTSCTIPK [GAL11]	2.75 ± 0.075	2.98 ± 0.068	3.14 ± 0.059	2.68 ± 0.049
CLKRGWGHPTRMLLNLC [BRR2]	–	3.14 ± 0.14	–	3.23 ± 0.079
CLLSIPKSTKGKILTIK [YML103C/NUP188]	1.67 ± 0.053	1.87 ± 0.062	1.97 ± 0.054	1.66 ± 0.11
CNDEDKDLETLYNKIWT [ECM29]	3.04 ± 0.081	3.06 ± 0.065	2.88 ± 0.037	2.44 ± 0.074
CNERVPLSVATELMNRS [SRP72]	2.43 ± 0.033	2.52 ± 0.044	2.19 ± 0.036	2.26 ± 0.052
CPYCYKKRREYFPEGYN [SIR2]	2.43 ± 0.11	2.41 ± 0.16	2.75 ± 0.069	2.61 ± 0.2
CQILDGELDVLQIESVT [PRP8]	2.56 ± 0.05	2.78 ± 0.062	2.86 ± 0.059	2.55 ± 0.065
CRNINRKHRNAQFAGRA [DIS3]	2.54 ± 0.11	2.78 ± 0.071	2.92 ± 0.086	2.18 ± 0.22
